B1: TPR 5TU (parent)
chain: GGAUCUUCUCGAUCUAACAAAAAAGACAAAUCUGCCACAAAGCUUGAGAGCAUCUUCGGAUGCAGAGGCGGCAGCCUUCGGUGGCGCGAUAGCGCCAACGUUCUCAACUAUGACACGCAAAACGCGUGCUCCGUUGAAUGGAGUUUAUCAUG

Variants at the floor of the assay were thinned out. Bounds are passed on as bounds.

This data set covers variants of B1. In words: polymerase ribozyme fitness, log enrichment relative to wild type (log ratio); higher = more active; in vitro selection for triplet polymerase activity. The method in brief:
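For each subunit of a heterodimeric triplet polymerase ribozyme, a mutant library was built by PCR and transcribed, then taken through a single in vitro selection round in triplicate. Selection involved annealing to a biotinylated primer, the partner subunit and triplets, incubation frozen at −7 °C, gel excision of extended constructs, capture on streptavidin beads and RT-PCR. Genotypes were retained after Illumina sequencing of inputs and outputs only with ≥10 input reads and ≥1 read in each output. Fitness is defined as the logarithm of a genotype's enrichment relative to wild-type enrichment, using inverse-variance-weighted averages across replicates, with the logarithm taken to base 2.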
Take GGAUCUUCUCGAUCUAACAAAAAAGACAAAUCUGCCACAAGGCUUGAGAGCAUCUUCGGAUGCAGAGGCGGCAGCCUUCGGUGUCGCGAUAGCGCCAACGUUCUCAACUAUGACACGCAAAACGCGUGCUCCGUUGAAUGGAGUUUAUCAUG: the “polymerase ribozyme fitness (log ratio)” value is -0.79.
In the case of GGAUCUUCUCGAUCUAACAAAAAAGUCAAAUCUGCCACAAAGCUUGAGAGCAUUUUCGGAUGCAGAGGCGGCAGCCUUCGGUGGCGCGAUAGCGUCAACGUUCUCAACUAUGACACGCAAAACGCGUGCUCCGUUGAAUGGAGUUUAUCAUG, the “polymerase ribozyme fitness (log ratio)” value was -1.76.
The figure for GGAUCUUCUCGAUCUAACAAAAAAGACACAGCUGCCACAAAGCUUGAGAGCAUCUUCGGAUGCAGAGGCGGCAGCCUUCGGUGGCGAGAUAGCGCCAACGUUCUCAACUAUGACACGCAAAACGCGUGCUCCGUUGAAGGGAGUUUAUCAUG is ≤ -4.2; for GGAUCUUCUCGAUCUAACAAAAAAGACAAAUCUGCCACAAAGCUUGAGAGCAUCUUCGGAUGCAGAGGCGGCAGCUUUCGGUGGCGCGAUAGCGUCAACGUUCUCAACUAUGACACGCAAAACGCGUGCUCCGUUGAAUGGAGUUUAUCAUG it is 0.961.
The figure for GGAUCUUCUCGAUCUAACAAAAAAGACAAAUCUGCCACAAAGCUUGAGAGCAUCUUCGGAUGGAGAGGGGGCAGCCUUCGGUGGCGCGAUAGCGCCAACGUUCUCAACUAUGACACGCAAAACGCGUGCUCCGUUGAAUGGAGUUUAUCAUG is -1.75; for GGAUCUUCUCGAUCUAACAAAAAAGACAAAUCUGCCACAAAGCUUGAGAGCAUCUUCGGAUGCAGAGGCGGCAGCCUUCGGUGUCGCGAUAGCGCCAACGUUCUCAACUAUGACACGCAACACGCGUGCUCCGUUGAAUGGAGUUUAUCAUG it is -1.74.
For GGAUCUUCUCGAUCUAACAAAAAAGACAAAUCUGCCACAAAGCUUGAAAGCAUCUUCGGAUGCAGAGGCGGCAGCCUUCGGUGGAGCGAUAGCGCCAACGUUCUCAACUAUGACACGCAAAAUGCGUGCUCCGCUGAAUGGAGUUUAUCAUG, the “polymerase ribozyme fitness (log ratio)” value was -1.46.
The figure for GGAUCUUCUCGAUCUAACAAAAAAGACAAAUCUGCCACAAAGCUUGAGAGCAUCUUCGGAUGCAGAGGCGGCAGCCUUCGGUGGCGCGAUAGCGCUAACGUUCUCAACUAUGACACGCAAAACGCGUGCUCCGUUGAAUGAAGUUUAUCAUG is 0.0586; for GGAUCUUCUCGAUCUAACAAAAAAGACAAAUCUGCCACAAAGCUUGAGAGCAUCUUCGGAUGCAGAGGCGGCAGCCUUCGGUGGCGCGAUAGCACCAACGUUCUCAACUAUGACACGCAAAACGCGUGCUCCGUUGAAUGGAGUUUAUCAUC it is -3.08.
The figure for GGAUCUUCUCGAUCUAACAAAAAAGACAAAUCUGCCACAAAGCUUGAGAGCAUCUUCGGAUGCAGAGGCGGAAGCCUUCGGUGGCGCGAUAGCGCCAACGUUCUCAACUAUGAAACGCAAAACGCGUGCUCCGUUGAAUGGAGUUUAUCAUG is ≤ -4.2; for GGAUCUUCUCGAUCUAACAAAAAAGACAAAUAUGUCACAAAGCUUGAGAGCAUCUUCGGAUGCAGAGGAGGCAGUCUUCGGUGGCGCGAUAGCGCCAACGUUCUCAACUAUGACACGCAAAACGCGUGCUCCGUUGAAUGGAGUUUAUCGUG it is ≤ -4.2; for GGAUCUUCUCGAUCUAACAAAAAAGACAAAUCUGCCACAAAGCUUGAGAGCAUCUUCGGAUGCAGAGGCGGCAGCCUUCGGUGGCGCGAUAGCACUAAGGUUCUCAACUAUGACACGCAAAACGCGUGCUCCGUUGAAUGGAGGUUAUCAUG it is ≤ -4.2.
Consider GGAUCUUCUCGAUCUAACAAAAAAGACAAAUCUGCCACAAAGCUUGUGAGCAUCUUCGGAUGCAGAGGCGGCAGCCUUCGGUGGCGCGAUAGCGCCAACGUUCUCAACUAUGACACGCAAAACGCGUGCUCCGUUGAAUGAAGUUUAUCAUG, for which the “polymerase ribozyme fitness (log ratio)” value was -1.46.
The figure for GGAUCUUCUCGAUCUAACAAAAAAGACAAAUCUGCCACAAAGCUUGAGAGCAUCUUCGGAUGCAGAGGAGGCAGCCUUCGGUGGCGCGAUAGCGCCAACGUUCUCAACUAUGACACGUAAAACGCGUGCUCCGUUGAAUGGAGUUUAUCAUG is -1.62; for GGAGCUGCUCGAUCUAACAAAAAAGACAAAUCUGCCACAAAGCUUGAGUGCAUCUUCGGAUGCAGAGGCGGCAGGCUUCGGUGGCGCGAUAGUGCCAACGUUCUCAACUAUGACACGCAAAACGCGUGCUCCGUUGAAUGGAGUUUAUCAUG it is ≤ -4.2.
For GGAUCUUCUCGAUCUAACAAUAAAGACAAAUCUGCCACAGAGCUUGAGAGCAUCUUCGGGUGCAGAGGCGGCAGCCUUCGGUGGCGCGAUAGCGCGAACGUUCUCAACUAUGACACGCAAAACGCGUGCUCCGUUGAAUGGAGUUGAUCAUG, the “polymerase ribozyme fitness (log ratio)” value was -3.99.
Turning to GGAUCUUCUCUAUCUAACAAAAAACACAAAUCUGCCACAAAGCUUGAGAGCAUCUUCGGAUGCAGAGGCGCCAGCCUUCGGUGGCGCGAUAGCGGCAACGUUAUCAACUAUGACAGGCAAAACGCGUGCUCCGUUGAAUGGAGUUUAUCAUG, the “polymerase ribozyme fitness (log ratio)” value is ≤ -4.2.
The figure for GGAUCUUCUCGAUCUCACAAAAAAGACAAAUCUGCCCCACAGCUUGAGAGCAUCUUCGGAUGUUGAGGGGGCAGCUUUCGGUGGCGCGAUAGCGCCAACGUUCUCAACUAUGACACGCAAAACGCGUGCUCCGUUGAAUGCAGUUUAUCAUG is ≤ -4.2; for GGAUCUUCUCGAUCUAACAAAAAAGACAAAUCUGCCACAACGCUUGAGAGCAUUUUCGGAUGCAGAGGCGGCAGCCUUCGGUGGCGCGAUAGCGCCAACGUUCUCAACUGUGACACGCAAAACGCGUGCUCCGUUGAAUGGAGUUUAUCAUG it is -2.74.

The record behind these values is the RNAGym collection of RNA variant scans (doi:10.1073/pnas.2313332121).
